From the supplement of paper PMC9233669
Fewer inactive variants are shown than the library holds.

Columns and labels:
[1] = system: biotinyl-Phe-oxazolone; assay: self-aminoacylation, catalytic enhancement (BFO) (fold over background); higher = more active; k-Seq, kA / k0A0; sequences stand for … in GGGAAUGGAUCCACAUCUACGAAUUC…UUCACUGCAGACUUGACGAAGCUG
Method in brief: (§1)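 The uncatalyzed rate is the low-activity peak of a bimodal Gaussian fit, and catalytic enhancement is median kA divided by it. The kA values came from pseudo-first-order fits, with 1000 bootstraps, of per-sequence fraction reacted measured by streptavidin capture, triplicate qPCR and Illumina sequencing. Mutagenized RNA pools with a 21-nt variable region (0.43 μM) were reacted with each biotinyl-aminoacyl-oxazolone at 2–1250 μM in 50 μL HEPES/NaCl/KCl/MgCl2/CaCl2 buffer with 5% acetonitrile, pH 6.9–7.0, for 90 minutes at room temperature.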

[2] = system: biotinyl-Ile-oxazolone; assay: self-aminoacylation, catalytic enhancement (BIO) (fold over background); higher = more active; k-Seq, kA / k0A0; sequences stand for … in GGGAAUGGAUCCACAUCUACGAAUUC…UUCACUGCAGACUUGACGAAGCUG
Method in brief: as §1

[3] = system: biotinyl-Met-oxazolone; assay: self-aminoacylation, catalytic enhancement (BMO) (fold over background); higher = more active; k-Seq, kA / k0A0; sequences stand for … in GGGAAUGGAUCCACAUCUACGAAUUC…UUCACUGCAGACUUGACGAAGCUG
Method in brief: as §1

[4] = system: biotinyl-Val-oxazolone; assay: self-aminoacylation, catalytic enhancement (BVO) (fold over background); higher = more active; k-Seq, kA / k0A0; sequences stand for … in GGGAAUGGAUCCACAUCUACGAAUUC…UUCACUGCAGACUUGACGAAGCUG
Method in brief: as §1

[5] = system: biotinyl-Leu-oxazolone; assay: self-aminoacylation, catalytic enhancement (BLO) (fold over background); higher = more active; k-Seq, kA / k0A0; sequences stand for … in GGGAAUGGAUCCACAUCUACGAAUUC…UUCACUGCAGACUUGACGAAGCUG
Method in brief: as §1

[6] = system: biotinyl-Trp-oxazolone; assay: self-aminoacylation, catalytic enhancement (BWO) (fold over background); higher = more active; k-Seq, kA / k0A0; sequences stand for … in GGGAAUGGAUCCACAUCUACGAAUUC…UUCACUGCAGACUUGACGAAGCUG
Method in brief: as §1

Row | Sequence | self-aminoacylation [1] | self-aminoacylation [2] | self-aminoacylation [3] | self-aminoacylation [4] | self-aminoacylation [5] | self-aminoacylation [6]
1 | AAGUAUGCUAAUAGUCGCAAU [Fam3.1 aminoacylation ribozyme variant] | 1.96 | 1.9 | 2.13 | 1.52 | 1.64 | 1.75
2 | AUUACGCUGGUCAUGGAGUGA [Fam2.1 aminoacylation ribozyme variant] | 5.28 | 2.29 | 2.67 | 2.39 | 2.76 | 3.44
3 | UUUACCCUGGUCAUCGAGUCA [Fam2.1 aminoacylation ribozyme variant] | 1.06 | 0.707 | 0.696 | 0.738 | 0.713 | 0.585
4 | AAGUUUGCUAAUGGUCGAAAG [Fam3.1 aminoacylation ribozyme variant] | 1.03 | 0.687 | 0.723 | 0.897 | 0.591 | 0.713
5 | AUUACCCUGCUUAUCGAGUGA [Fam2.1 aminoacylation ribozyme variant] | 2.4 | 1.29 | 1.64 | 1.37 | 1.96 | 2.33
6 | CUACUUCAAACUACCGGUCUG [Fam1A.1 aminoacylation ribozyme variant] | 0.75 | 1.1 | 0.809 | 0.832 | 0.868 | 0.846
7 | CUUCACCUAGGUCAUCGGAUG [Fam2.2 aminoacylation ribozyme variant] | 1 | 1.06 | 0.842 | 1.18 | 0.891 | 0.921
8 | CUACUUAAACCAAUCGGUCUG [Fam1A.1 aminoacylation ribozyme variant] | 0.538 | 0.88 | 0.693 | 0.67 | 0.594 | 0.473
9 | UUACUACAAACAAUCGGUCUG [Fam1A.1 aminoacylation ribozyme variant] | 1.62 | 1.04 | 0.904 | 0.833 | 0.856 | 1.31
10 | AUAUUUCAAACAAUCGGUCUG [Fam1A.1 aminoacylation ribozyme variant] | 5.45 | 0.897 | 0.844 | 0.834 | 0.891 | 3.15
11 | AUUCACCUAGGGUAUCGGGUG [Fam2.2 aminoacylation ribozyme variant] | 50.9 | 3.84 | 6.75 | 3.99 | 8.63 | 6.31
12 | AUUCACCUGGCUCAUCGGGUG [Fam2.2 aminoacylation ribozyme variant] | 18.3 | 2.18 | 1.79 | 3.81 | 3.2 | 2.44
13 | ACACACUUCCAGCAAUCGGUC [Fam1B.1 aminoacylation ribozyme variant] | 1.19 | 1.47 | 1.31 | 1.3 | 1.3 | 1.6
14 | CUACUUCAAACAUUCUGUCUG [Fam1A.1 aminoacylation ribozyme variant] | 0.851 | 0.822 | 0.7 | 0.79 | 0.727 | 0.543
15 | AAUCACAUAGGUCAUCGGGUG [Fam2.2 aminoacylation ribozyme variant] | 49.2 | 4.88 | 7.73 | 4.18 | 7.16 | 6.45
16 | CAACUUCAAACAAUCGUUCUG [Fam1A.1 aminoacylation ribozyme variant] | 1.83 | 0.675 | 0.624 | 0.734 | 0.728 | 1.03
17 | AUUAACCUAGGUCGUCGGGUG [Fam2.2 aminoacylation ribozyme variant] | 3.08 | 1.38 | 1.7 | 1.42 | 2.01 | 1.42
18 | AUUAACCUGGUCAUAGAGUGA [Fam2.1 aminoacylation ribozyme variant] | 17.4 | 2.31 | 4.3 | 2.55 | 4.78 | 6.17
19 | AAGUGUGCUAAUAGUCUCAAG [Fam3.1 aminoacylation ribozyme variant] | 8.7 | 1.26 | 1.4 | 1.62 | 1.44 | 2.73
20 | CCACACUUCGACCAAUCGGUC [Fam1B.1 aminoacylation ribozyme variant] | 1.42 | 1.31 | 1.74 | 1.85 | 1.22 | 1.41
21 | AAGUUUGCUAAUAGGCGGAAG [Fam3.1 aminoacylation ribozyme variant] | 0.916 | 0.806 | 0.721 | 0.89 | 0.675 | 0.922
22 | AUCACCCUGGUCAUCGGGUGA [Fam2.1 aminoacylation ribozyme variant] | 33.4 | 5.17 | 9.05 | 5.27 | 9.48 | 14.1
23 | AUUCACCUAGGGCAUCGGUUG [Fam2.2 aminoacylation ribozyme variant] | 0.577 | 1.02 | 1.05 | 0.969 | 1.12 | 0.909
24 | AUACCUCAAACAAUCGGUCUG [Fam1A.1 aminoacylation ribozyme variant] | 4.92 | 0.977 | 0.919 | 0.92 | 0.934 | 1.52
25 | AUUACCCUGGUCAACGAGUGA [Fam2.1 aminoacylation ribozyme variant] | 22.4 | 3.43 | 6.11 | 3.6 | 5.99 | 7.31
26 | AAGUAUGCUCAUAGUCGCAAG [Fam3.1 aminoacylation ribozyme variant] | 4.07 | 1.83 | 1.5 | 1.3 | 1.3 | 2.78
